Holding throughout (test): flow
Conditions in all cases: whole cells, 4C

Data set [1] relates to unidentified cell-surface target of MCF7 cells (Homo sapiens).
The subject of data set [2] is unidentified cell-surface target of MDA-MB-231 cells (Homo sapiens).
For data set [3], the system named is unidentified cell-surface target of T-47D cells (Homo sapiens).

For orientation: Kd means the equilibrium constant for the complex coming apart. With “GGCCCGGCTGGCATGTANTCATGCCTCCTGGNCTAAGGTTTCTAAAGGGCC [08B-MCF7 (51DsDs)]”, the Kd in data set [1] (n = Ds at 18 and 32, ±0.3) is 3.2 nM.
The sequence “CCCTCTTAAGTTTATAGNTGTCTTTTGGTNCCTAGGGCGTTTTAAAGGG [23-MB231b]” came in with a Kd in data set [2] (n = Ds, ±5.6) of 23.3 nM.
As to “CGGCGGTCNGTCGAACTGTNATGAGCGTGCCGCCGCGCGTAGCG [14A-MCF7mh (44DsDs)]”, the Kd in data set [1] (n = Ds, ±0.2) was 1.9 nM.
Sequence “GGCGCCAGGGGTGTTTGTGCCGTGAGNTGTGGCGCC [05-MB231GC]” returned a Kd in data set [2] (n = Ds, ±0.2) of 2.2 nM.
With “GCGGCGAAGATCACNACTAGGGGNCCTCGCCGC [03-T47D (DsDs)]”, in data set [3] (n = Ds at 15 and 24, ±6.7), the Kd turned out to be 91.6 nM.
As to “CCGCGCAGCCTGGGNTCTCTTTTAGTCNAGTTCAATCGCGCGGCGCGTAGCG [07-MB231mh]”, the Kd in data set [2] (n = Ds, ±0.3) is 2 nM.
In turn, “CCCTCTTAAGTTTATAGNTGTCTTTTGGTNCCTAGGGCGTTTTAAAGGGCGCGTAGCG [23-MB231bmh]” displayed a Kd in data set [2] (n = Ds, ±0.9) of 2.5 nM.
“GCGGCGAAGATCACNACTAGGGGNCCTCGCCGCCGCGTAGCG [03-T47Dmh]” registered an equilibrium dissociation constant (Kd) in data set [3] (n = Ds, ±3.0) of 39.3 nM.
“GGCCCGGCTGGCGAAGCCTCCTGGNCTAAGGTTTCTAAAGGGCCCGCGTAGCG [08B-MCF7mh2]”: in data set [1] (n = Ds, ±0.1), the Kd came to 2.3 nM.
As for “CGGTCNGTCGAACTGTNATGAGCGTGCCGCGCGTAGCG [14A-MCF7mh (38DsDs)]”, in data set [1] (n = Ds, ±0.02), the Kd amounted to 2.6 nM.
In turn, “CCGCGCAGCCTGGGNTCTCTTTTAGTCNAGTTCAATCGCGCGG [07-MB231 (DsDs)]” registered a Kd in data set [2] (n = Ds at 15 and 28, ±0.5) of 2.2 nM.
In turn, “GGCGGTCNGTCGAACTGTNATGAGCGTGCCGCCCGCGTAGCG [14A-MCF7mh]” yielded a dissociation constant (Kd) in data set [1] (n = Ds, ±0.2, printed 14A-MCF7rmh) of 2.1 nM.
In data set [1] (n = Ds, ±0.1 (printed 01)), “GGCCCGGCTGGCATGTANTCATGCCTCCTGGNCTAAGGTTTCTAAAGGGCCCGCGTAGCG [08B-MCF7mh]” displayed a Kd of 2.5 nM.
Take “GCGGTCNGTCGAACTGTNATGAGCGTGCCGCCGCGTAGCG [14A-MCF7mh (40DsDs)]”: the equilibrium dissociation constant (Kd) in data set [1] (n = Ds, ±0.2) came out at 2.2 nM.
For the sequence “CTCTAGTCNGTCGAACTGTNATGAGCGTGCTAGGGGG [14A-MCF7 (37DsDs)]”, in data set [1] (n = Ds, ±0.1, Mg2+), the Kd is 2.1 nM.
On to “GGCGCCAGGGGTGTTTGTGCCGTGAGNTGTGGCGCCCGCGTAGCG [05-MB231GCmh]”, for which the equilibrium dissociation constant (Kd) in data set [2] (n = Ds, ±0.1) was found to be 1.6 nM.

The record behind these values is patent publication US20180348220.
